Source: article PMC12804668

Target: Ec78 PtuA ATPase (E. coli ECONIH5)
Experiment: cryo-EM structure

Q: For Ec78 PtuA ATPase (enzyme), which stoichiometry N is on record?
A: Its stoichiometry N is 4.
